The results in this text go back to US9981005.

The assay has as its target Skp1-FBXW7 complex (human FBXW7 residues 263-707 with truncated Skp1) (human) (UniProt P63208). Put plainly: isothermal titration calorimetry, Skp1-FBXW7, 25 °C.

Sequence of Skp1-FBXW7 complex (human FBXW7 residues 263-707 with truncated Skp1) (human) (chain, as listed by the source limits assumed, chain 1 of 2): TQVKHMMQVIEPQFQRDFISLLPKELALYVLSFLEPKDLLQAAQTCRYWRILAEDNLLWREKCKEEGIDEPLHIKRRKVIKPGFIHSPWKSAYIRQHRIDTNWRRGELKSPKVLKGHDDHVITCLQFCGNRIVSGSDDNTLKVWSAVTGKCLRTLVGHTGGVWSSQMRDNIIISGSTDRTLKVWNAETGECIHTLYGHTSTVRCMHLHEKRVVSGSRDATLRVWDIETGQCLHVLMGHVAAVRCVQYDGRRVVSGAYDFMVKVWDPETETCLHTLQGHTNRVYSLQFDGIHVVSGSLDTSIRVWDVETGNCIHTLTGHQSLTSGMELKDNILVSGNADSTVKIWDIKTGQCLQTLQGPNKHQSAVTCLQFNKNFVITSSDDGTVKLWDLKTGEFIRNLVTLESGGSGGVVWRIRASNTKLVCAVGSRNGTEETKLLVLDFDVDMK
Sequence of Skp1-FBXW7 complex (human FBXW7 residues 263-707 with truncated Skp1) (human) (P63208 whole entry, chain 2 of 2, the tested form may be a part): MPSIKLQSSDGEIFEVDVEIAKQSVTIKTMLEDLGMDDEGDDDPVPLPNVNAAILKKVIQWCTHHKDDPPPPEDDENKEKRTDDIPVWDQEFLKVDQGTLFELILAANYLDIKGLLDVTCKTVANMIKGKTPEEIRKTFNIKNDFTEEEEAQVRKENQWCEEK

One may read the Kd as the concentration at which binding is half-saturated. Take “doubly-phosphorylated test peptide VPPpTPPGpSH”: the Kd worked out at 1 µM.
